Literature values, collected in patent US12478627B2, “Irsogladine for the treatment of eosinophilic gastrointestinal diseases” (EPITHELION SCIENCE BIOTECH, S.L., priority 2019, dated 2025).

Test system: EoE and EoGIDs
Conditions: patients with EoE or EoGIDs, literature reports

B1: Mepolizumab: mAb against IL-5 (antibody, chains of the INN, looked up, V domains shown)
VH: QVTLRESGPALVKPTQTLTLTCTVSGFSLTSYSVHWVRQPPGKGLEWLGVIWASGGTDYNSALMSRLSISKDTSRNQVVLTMTNMDPVDTATYYCARDPPSSLLRLDYWGRGTPVTVSS
VL: DIVMTQSPDSLAVSLGERATINCKSSQSLLNSGNQKNYLAWYQQKPGQPPKLLIYGASTRESGVPDRFSGSGSGTDFTLTISSLQAEDVAVYYCQNVHSFPFTFGGGTKLEIK
- clinical symptoms: did not correspond with clinical improvement
- tissue eosinophil infiltrate: significant reduction

B2: Resolizumab: mAb against IL-5 (antibody, chains of the INN, looked up, V domains shown)
VH: EVQLVESGGGLVQPGGSLRLSCAVSGLSLTSNSVNWIRQAPGKGLEWVGLIWSNGDTDYNSAIKSRFTISRDTSKSTVYLQMNSLRAEDTAVYYCAREYYGYFDYWGQGTLVTVSS
VL: DIQMTQSPSSLSASVGDRVTITCLASEGISSYLAWYQQKPGKAPKLLIYGANSLQTGVPSRFSGSGSATDYTLTISSLQPEDFATYYCQQSYKFPNTFGQGTKVEVK
- clinical symptoms: did not correspond with clinical improvement
- tissue eosinophil infiltrate: significant reduction
